# Assay results: patent US20140302123A1
# Molecular target: PTPN4 as expressed in U373MG cells (human) (UniProt P29074)
# Experiment: cell-based or functional assay
# Sequence of PTPN4 as expressed in U373MG cells (human) (P29074 whole entry): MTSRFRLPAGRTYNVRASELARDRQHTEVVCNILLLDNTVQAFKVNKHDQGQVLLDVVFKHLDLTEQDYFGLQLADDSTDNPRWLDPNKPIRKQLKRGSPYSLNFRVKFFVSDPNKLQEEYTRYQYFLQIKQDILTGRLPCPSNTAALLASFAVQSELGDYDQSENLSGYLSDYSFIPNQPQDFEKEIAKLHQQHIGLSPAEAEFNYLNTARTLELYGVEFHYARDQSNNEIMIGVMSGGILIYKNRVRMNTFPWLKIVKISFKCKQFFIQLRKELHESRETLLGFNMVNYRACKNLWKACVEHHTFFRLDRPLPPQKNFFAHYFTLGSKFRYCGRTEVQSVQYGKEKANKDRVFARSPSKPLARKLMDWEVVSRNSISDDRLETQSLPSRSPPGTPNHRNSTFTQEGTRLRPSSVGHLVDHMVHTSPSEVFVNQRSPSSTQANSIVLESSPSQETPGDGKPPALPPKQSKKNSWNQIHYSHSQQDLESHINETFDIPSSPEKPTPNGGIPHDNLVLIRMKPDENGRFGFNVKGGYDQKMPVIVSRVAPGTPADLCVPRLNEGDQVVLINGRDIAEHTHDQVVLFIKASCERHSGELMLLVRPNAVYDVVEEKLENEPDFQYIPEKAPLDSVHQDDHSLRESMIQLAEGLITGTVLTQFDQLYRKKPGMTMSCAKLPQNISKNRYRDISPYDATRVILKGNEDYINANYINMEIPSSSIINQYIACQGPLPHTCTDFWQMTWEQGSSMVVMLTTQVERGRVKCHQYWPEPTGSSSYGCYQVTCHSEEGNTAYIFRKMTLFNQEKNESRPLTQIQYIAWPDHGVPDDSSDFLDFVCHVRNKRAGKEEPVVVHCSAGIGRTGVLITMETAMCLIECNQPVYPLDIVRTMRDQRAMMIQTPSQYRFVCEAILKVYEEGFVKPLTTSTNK
substance,measurement,value
"Tat-conjugated, FITC-labelled GluN2A-16 (peptide)","cell death (% of dead cells among peptide loaded cells), U373MG, 3 h, 25 microM, propidium iodide",29%
